Positions count from the first letter of the chain named. No end group written: not given here.
B1: Rh7B2 IgG1 (antibody, V domains shown)
VH: EVQLVESGGGLVQPGGSLRLSCAASGFTFTEYYMSWVRQAPGKGLEWVSYISKNGEYSYYADSVKGRFTISRDNAKNSLSLQMSSLRAEDTAVYYCTRADGLTYFSELLQYIFDLWGQGVLVTVSS
VL: DIVMTQSPDSLAVSLGERVTINCKSSQTLLYSSNNRHSIAWYQQKPGQAPKLLIYWASMRLSGVPNRFSGSGSGTDFTLTISGLQAEDVAVYYCHQYSSHPPTFGQGTKVEIK
B2: DH677.3 (human IgG1) (antibody, V domains shown)
VH: QVQLVQSGAEVQKPGASVKVSCKASGYTFASYDINWVRQATGQGLEWMGWMNPKTGNTGYAQKFQGRVTLTRNTSISTAYMELTSLRSEDTAVYYCATYRIIAAVGYRYFQYWGQGTLVTVSS
VL: DIQLTQSPSSLSASVGDSVTITCRASQGFGNYLAWYQQRPGKVPEVLIYAATTLQSGVPSRFSGSGSGTDFTLTISSLQPEDVATYYCQKYNSAPFTFGQGTRLEIK
B3: RhDH827 IgG1 (antibody, V domains shown)
VH: EVQLVESGGGLVQPGGSLRLSCAASGFTFSNCAMHWVRQAPGKGLEWVAVISYHGSNKYYADYVKGRFTISRDNSKNMLYLQMNNLKLEDTAVYYCAREGGAPSGWALDYWGQGVLVTVSS
VL: SYELTQSPSVSVSPGQPASITCSGDKLGDKYACWYQQKPGQVPVLVIYEDTKRPSGIPERFSGSNSGNTATLTISGVEAGDEADYYCQAWDSITHVVFGGGTRLTVL
B4: DH827 (human IgG1) (antibody, V domains shown)
VH: EVQLVESGGGVVQPGRSLRLSCAASGFTFSNCAMHWVRQAPGKGLEWVAVISYHGSNKYYADYVKGRFTISRDNSKSTVYLQMNSPRAEDTAVYYCAKEGGAPSGWALDYWGQGTLVTVSS
VL: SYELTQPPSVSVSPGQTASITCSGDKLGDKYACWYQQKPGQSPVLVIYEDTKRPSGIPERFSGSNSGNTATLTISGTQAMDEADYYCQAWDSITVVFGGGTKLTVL
B5: RM JR4 IgG1 (antibody, V domains shown)
VH: EVQLVESGPGLVKPLETLSLTCAVPGGSIRRNYWSWIRQPPGKGLEWIGHSYGSGGSTNYNPSLESRVTLSVDTSKNLFSLKLTSVTAADTAVYYCARTVWYYTSGTHYFDHWGQGVLVTVSS
VL: QSVLTQPPSVSAAPGQKVTISCSGSSSNIGRSYVSWYQQVPGAAPKLLIYDTNKRPSGVSDRFSGSKSGSSASLAITGLQTGDEADYYCGAWDGSLNVHIFGSGTKLTVL
B6: RhDH677.3 IgG1 (antibody, V domains shown)
VH: B2 VH with Q12K, V20L, A30T, T41P, L70M, N73D, I76T, T84S, T117A
VL: B2 VL with D1A, L4M, S18K, R39K, E45K, V46L, G57E
B7: synthetic gp41 peptide (residues 596-606) with C-terminal amidation (peptide)
chain: WGCSGKLICTT-NH2
modifications: ends and bridges not checked

Key:
Experiment in all cases: SPR
[1] = target: B7
[2] = target: B7
[3] = target: monomeric full length single chain (FLSC), a covalent dimer of gp120BaL and CD4 (HIV-1 BaL | , UniProt P01730)
[4] = target: T1, V2 peptide corresponding to the clade A/E 92TH023 gp120 V2 loop sequence (residues 167-184) (HIV-1 clade A/E 92TH023)
[5] = target: T1, V2 peptide corresponding to the clade …; remark: listed apart in the source
7B2 = target: 7B2

Binder: B1
- Kd [1]: 583 nM
- koff [2]: 0.000534 s⁻¹

Binder: B2
- Kd [3]: 0.29 nM
- koff [3]: 4.05e-05 s⁻¹

Binder: B3
- Kd [4]: 2.73 µM
- koff [5]: 0.000486 s⁻¹

Binder: B4
- Kd [4]: 3.8 µM
- koff [5]: 0.0069 s⁻¹

Binder: B5
- Kd [3]: 0.85 nM
- koff [3]: 0.00013 s⁻¹

Binder: B6
- Kd [3]: 2.54 nM
- koff [3]: 0.000189 s⁻¹

Binder: B7
- Kd (7B2): 634 nM
- koff (7B2): 0.000654 s⁻¹

— PMC8770954 (2021)
